Assays:
purified protein [1] = substrate: N=C(N)NCCC[C@H](NCCC(=O)O)C(=O)O; experiment: purified protein; format: biochemical, Streptomyces clavuligerus; settings: pH 8.8, 25 °C, saturating ATP (2-4 mM), ionic strength 0.1
purified protein [2] = substrate: O=C(O)C[C@@H]1CC[C@@H](C(=O)O)N1; experiment: purified protein; format: biochemical, Streptomyces clavuligerus; settings: pH 8.3, 25 °C, 2 mM ATP, ionic strength 0.1

| Protein | Km (purified protein [1]) [µM] | kcat (purified protein [1]) [s⁻¹] | kcat/Km (purified protein [1]) [M⁻¹ s⁻¹] | Km (purified protein [2]) [µM] | kcat (purified protein [2]) [s⁻¹] |
| --- | --- | --- | --- | --- | --- |
| β-LS (β-lactam synthetase) (Streptomyces clavuligerus; Y348F) (protein) MGAPVLPAAFGFLASARTGGGRAPGPVFATRGSHTDIDTPQGERSLAATLVHAPSVAPDRAVARSLTGAPTTAVLAGEIYNRDELLSVLPAGPAPEGDAELVLRLLERYDLHAFRLVNGRFATVVRTGDRVLLATDHAGSVPLYTCVAPGEVRASTEAKALAAHRDPKGFPLADARRVAGLTGVYQVPAGAVMDIDLGSGTAVTHRTWTPGLSRRILPEGEAVAAVRAALEKAVAQRVTPGDTPLVVLSGGIDSSGVAACAHRAAGELDTVSMGTDTSNEFREARAVVDHLRTRHREITIPTTELLAQLPYAVWASESVDPDIIEYLLPLTALYRALDGPERRILTGFGADIPLGGMHREDRLPALDTVLAHDMATFDGLNEMSPVLSTLAGHWTTHPYWDREVLDLLVSLEAGLKRRHGRDKWVLRAAMADALPAETVNRPKLGVHEGSGTTSSFSRLLLDHGVAEDRVHEAKRQVVRELFDLTVGGGRHPSEVDTDDVVRSVADRTARGAA | 1400 ± 200 | 0.155 ± 0.007 | 110 ± 20 |  |  |
| β-LS (β-lactam synthetase) (Streptomyces clavuligerus; Y348A) (protein) MGAPVLPAAFGFLASARTGGGRAPGPVFATRGSHTDIDTPQGERSLAATLVHAPSVAPDRAVARSLTGAPTTAVLAGEIYNRDELLSVLPAGPAPEGDAELVLRLLERYDLHAFRLVNGRFATVVRTGDRVLLATDHAGSVPLYTCVAPGEVRASTEAKALAAHRDPKGFPLADARRVAGLTGVYQVPAGAVMDIDLGSGTAVTHRTWTPGLSRRILPEGEAVAAVRAALEKAVAQRVTPGDTPLVVLSGGIDSSGVAACAHRAAGELDTVSMGTDTSNEFREARAVVDHLRTRHREITIPTTELLAQLPYAVWASESVDPDIIEYLLPLTALYRALDGPERRILTGAGADIPLGGMHREDRLPALDTVLAHDMATFDGLNEMSPVLSTLAGHWTTHPYWDREVLDLLVSLEAGLKRRHGRDKWVLRAAMADALPAETVNRPKLGVHEGSGTTSSFSRLLLDHGVAEDRVHEAKRQVVRELFDLTVGGGRHPSEVDTDDVVRSVADRTARGAA | 190 ± 20 | 0.0082 ± 0.0002 | 43 ± 4 |  |  |
| β-LS (β-lactam synthetase) (Streptomyces clavuligerus; E382D) (protein) MGAPVLPAAFGFLASARTGGGRAPGPVFATRGSHTDIDTPQGERSLAATLVHAPSVAPDRAVARSLTGAPTTAVLAGEIYNRDELLSVLPAGPAPEGDAELVLRLLERYDLHAFRLVNGRFATVVRTGDRVLLATDHAGSVPLYTCVAPGEVRASTEAKALAAHRDPKGFPLADARRVAGLTGVYQVPAGAVMDIDLGSGTAVTHRTWTPGLSRRILPEGEAVAAVRAALEKAVAQRVTPGDTPLVVLSGGIDSSGVAACAHRAAGELDTVSMGTDTSNEFREARAVVDHLRTRHREITIPTTELLAQLPYAVWASESVDPDIIEYLLPLTALYRALDGPERRILTGYGADIPLGGMHREDRLPALDTVLAHDMATFDGLNDMSPVLSTLAGHWTTHPYWDREVLDLLVSLEAGLKRRHGRDKWVLRAAMADALPAETVNRPKLGVHEGSGTTSSFSRLLLDHGVAEDRVHEAKRQVVRELFDLTVGGGRHPSEVDTDDVVRSVADRTARGAA | 2800 ± 200 | 0.193 ± 0.006 | 69 ± 6 |  |  |
| β-LS (β-lactam synthetase) (Streptomyces clavuligerus) (protein) MGAPVLPAAFGFLASARTGGGRAPGPVFATRGSHTDIDTPQGERSLAATLVHAPSVAPDRAVARSLTGAPTTAVLAGEIYNRDELLSVLPAGPAPEGDAELVLRLLERYDLHAFRLVNGRFATVVRTGDRVLLATDHAGSVPLYTCVAPGEVRASTEAKALAAHRDPKGFPLADARRVAGLTGVYQVPAGAVMDIDLGSGTAVTHRTWTPGLSRRILPEGEAVAAVRAALEKAVAQRVTPGDTPLVVLSGGIDSSGVAACAHRAAGELDTVSMGTDTSNEFREARAVVDHLRTRHREITIPTTELLAQLPYAVWASESVDPDIIEYLLPLTALYRALDGPERRILTGYGADIPLGGMHREDRLPALDTVLAHDMATFDGLNEMSPVLSTLAGHWTTHPYWDREVLDLLVSLEAGLKRRHGRDKWVLRAAMADALPAETVNRPKLGVHEGSGTTSSFSRLLLDHGVAEDRVHEAKRQVVRELFDLTVGGGRHPSEVDTDDVVRSVADRTARGAA |  |  |  | 4900 ± 700 | 0.026 ± 0.002 |
